Test results reported in patent US12099068B2, “Biomarkers for graft-versus-host disease” (Incyte Corporation, priority 2018, dated 2024).

B1: EGF (protein, UniProt P01133 23-1207, looked up)
Pro-epidermal growth factor: PQHWSCPEGTLAGNGNSTCVGPAPFLIFSHGNSIFRIDTEGTNYEQLVVDAGVSVIMDFHYNEKRIYWVDLERQLLQRVFLNGSRQERVCNIEKNVSGMAINWINEEVIWSNQQEGIITVTDMKGNNSHILLSALKYPANVAVDPVERFIFWSSEVAGSLYRADLDGVGVKALLETSEKITAVSLDVLDKRLFWIQYNREGSNSLICSCDYDGGSVHISKHPTQHNLFAMSLFGDRIFYSTWKMKTIWIANKHTGKDMVRINLHSSFVPLGELKVVHPLAQPKAEDDTWEPEQKLCKLRKGNCSSTVCGQDLQSHLCMCAEGYALSRDRKYCEDVNECAFWNHGCTLGCKNTPGSYYCTCPVGFVLLPDGKRCHQLVSCPRNVSECSHDCVLTSEGPLCFCPEGSVLERDGKTCSGCSSPDNGGCSQLCVPLSPVSWECDCFPGYDLQLDEKSCAASGPQPFLLFANSQDIRHMHFDGTDYGTLLSQQMGMVYALDHDPVENKIYFAHTALKWIERANMDGSQRERLIEEGVDVPEGLAVDWIGRRFYWTDRGKSLIGRSDLNGKRSKIITKENISQPRGIAVHPMAKRLFWTDTGINPRIESSSLQGLGRLVIASSDLIWPSGITIDFLTDKLYWCDAKQSVIEMANLDGSKRRRLTQNDVGHPFAVAVFEDYVWFSDWAMPSVMRVNKRTGKDRVRLQGSMLKPSSLVVVHPLAKPGADPCLYQNGGCEHICKKRLGTAWCSCREGFMKASDGKTCLALDGHQLLAGGEVDLKNQVTPLDILSKTRVSEDNITESQHMLVAEIMVSDQDDCAPVGCSMYARCISEGEDATCQCLKGFAGDGKLCSDIDECEMGVPVCPPASSKCINTEGGYVCRCSEGYQGDGIHCLDIDECQLGEHSCGENASCTNTEGGYTCMCAGRLSEPGLICPDSTPPPHLREDDHHYSVRNSDSECPLSHDGYCLHDGVCMYIEALDKYACNCVVGYIGERCQYRDLKWWELRHAGHGQQQKVIVVAVCVVVLVMLLLLSLWGAHYYRTQKLLSKNPKNPYEESSRDVRSRRPADTEDGMSSCPQPWFVVIKEHQDLKNGGQPVAGEDGQAADGSMQPTSWRQEPQLCGMGTEQGCWIPVSSDKGSCPQVMERSFHMPSYGTQTLEGGVEKPHSLLSANPLWQQRALDPPHQMELTQ
modifications: Pro-epidermal growth factor
B2: GM-CSF-R-alpha (protein, UniProt P15509 23-400, looked up)
Granulocyte-macrophage …: EKSDLRTVAPASSLNVRFDSRTMNLSWDCQENTTFSKCFLTDKKNRVVEPRLSNNECSCTFREICLHEGVTFEVHVNTSQRGFQQKLLYPNSGREGTAAQNFSCFIYNADLMNCTWARGPTAPRDVQYFLYIRNSKRRREIRCPYYIQDSGTHVGCHLDNLSGLTSRNYFLVNGTSREIGIQFFDSLLDTKKIERFNPPSNVTVRCNTTHCLVRWKQPRTYQKLSYLDFQYQLDVHRKNTQPGTENLLINVSGDLENRYNFPSSEPRAKHSVKIRAADVRILNWSSWSEAIEFGSDDGNLGSVYIYVLLIVGTLVCGIVLGFLFKRFLRIQRLFPPVPQIKDKLNDNHEVEDEIIWEEFTPEEGKGYREEVLTVKEIT
B3: CD40-L (protein, UniProt P29965 113-261, looked up)
CD40 ligand, soluble form: MQKGDQNPQIAAHVISEASSKTTSVLQWAEKGYYTMSNNLVTLENGKQLTVKRQGLYYIYAQVTFCSNREASSQAPFIASLCLKSPGRFERILLRAANTHSSAKPCGQQSIHLGGVFELQPGASVFVNVTDPSQVSHGTGFTSFGLLKL
B4: VEGFC (protein, UniProt P49767 112-227, looked up)
Vascular endothelial growth …: AHYNTEILKSIDNEWRKTQCMPREVCIDVGKEFGVATNTFFKPPCVSVYRCGGCCNSEGLQCMNTSTSYLSKTLFEITVPLSQGPKPVTISFANHTSCRCMSKLDVYRQVHSIIRR
B5: GSAP (protein, UniProt A4D1B5 1-854, looked up)
Gamma-secretase-activating …: MALRLVADFDLGKDVLPWLRAQRAVSEASGAGSGGADVLENDYESLHVLNVERNGNIIYTYKDDKGNVVFGLYDCQTRQNELLYTFEKDLQVFSCSVNSERTLLAASLVQSTKEGKRNELQPGSKCLTLLVEIHPVNNVKVLKAVDSYIWVQFLYPHIESHPLPENHLLLISEEKYIEQFRIHVAQEDGNRVVIKNSGHLPRDRIAEDFVWAQWDMSEQRLYYIDLKKSRSILKCIQFYADESYNLMFEVPLDISLSNSGFKLVNFGCDYHQYRDKFSKHLTLCVFTNHTGSLCVCYSPKCASWGQITYSVFYIHKGHSKTFTTSLENVGSHMTKGITFLNLDYYVAVYLPGHFFHLLNVQHPDLICHNLFLTGNNEMIDMLPHCPLQSLSGSLVLDCCSGKLYRALLSQSSLLQLLQNTCLDCEKMAALHCALYCGQGAQFLEAQIIQWISENVSACHSFDLIQEFIIASSYWSVYSETSNMDKLLPHSSVLTWNTEIPGITLVTEDIALPLMKVLSFKGYWEKLNSNLEYVKYAKPHFHYNNSVVRREWHNLISEEKTGKRRSAAYVRNILDNAVKVISNLEARNLGPRLTPLLQEEDSHQRLLMGLMVSELKDHFLRHLQGVEKKKIEQMVLDYISKLLDLICHIVETNWRKHNLHSWVLHFNSRGSAAEFAVFHIMTRILEATNSLFLPLPPGFHTLHTILGVQCLPLHNLLHCIDSGVLLLTETAVIRLMKDLDNTEKNEKLKFSIIVRLPPLIGQKICRLWDHPMSSNIISRNHVTRLLQNYKKQPRNSMINKSSFSVEFLPLNYFIEILTDIESSNQALYPFEGHDNVDAEFVEEAALKHTAMLLGL
B6: PILRB (protein, UniProt Q9UKJ0 20-227, looked up)
Paired immunoglobulin-like …: QPGGSTGSGPSYLYGVTQPKHLSASMGGSVEIPFSFYYPWELAIVPNVRISWRRGHFHGQSFYSTRPPSIHKDYVNRLFLNWTEGQESGFLRISNLRKEDQSVYFCRVELDTRRSGRQQLQSIKGTKLTITQAVTTTTTWRPSSTTTIAGLRVTESKGHSESWHLSLDTAIRVALAVAVLKTVILGLLCLLLLWWRRRKGSRAPSSDF
B7: FCRL1 (protein, UniProt Q96LA6 17-429, looked up)
Fc receptor-like protein 1: AELFLIASPSHPTEGSPVTLTCKMPFLQSSDAQFQFCFFRDTRALGPGWSSSPKLQIAAMWKEDTGSYWCEAQTMASKVLRSRRSQINVHRVPVADVSLETQPPGGQVMEGDRLVLICSVAMGTGDITFLWYKGAVGLNLQSKTQRSLTAEYEIPSVRESDAEQYYCVAENGYGPSPSGLVSITVRIPVSRPILMLRAPRAQAAVEDVLELHCEALRGSPPILYWFYHEDITLGSRSAPSGGGASFNLSLTEEHSGNYSCEANNGLGAQRSEAVTLNFTVPTGARSNHLTSGVIEGLLSTLGPATVALLFCYGLKRKIGRRSARDPLRSLPSPLPQEFTYLNSPTPGQLQPIYENVNVVSGDEVYSLAYYNQPEQESVAAETLGTHMEDKVSLDIYSRLRKANITDVDYEDAM
B8: FABP4 (protein, UniProt P15090 2-132, looked up)
Fatty acid-binding protein, …: CDAFVGTWKLVSSENFDDYMKEVGVGFATRKVAGMAKPNMIISVNGDVITIKSESTFKNTEISFILGQEFDEVTADDRKVKSTITLDGGVLVHVQKWDGKSTTIKRKREDDKLVVECVMKGVTSTRVYERA
B9: GZMH (protein, UniProt P20718 21-246, looked up)
Granzyme H: IIGGHEAKPHSRPYMAFVQFLQEKSRKRCGGILVRKDFVLTAAHCQGSSINVTLGAHNIKEQERTQQFIPVKRPIPHPAYNPKNFSNDIMLLQLERKAKWTTAVRPLRLPSSKAQVKPGQLCSVAGWGYVSMSTLATTLQEVLLTVQKDCQCERLFHGNYSRATEICVGDPKKTQTGFKGDSGGPLVCKDVAQGILSYGNKKGTPPGVYIKVSHFLPWIKRTMKRL
B10: TDRKH (protein, UniProt Q9Y2W6 1-561, looked up)
Tudor and KH …: MSTERTSWTSLSTIQKIALGLGIPASATVAYILYRRYRESREERLTFVGEDDIEIEMRVPQEAVKLIIGRQGANIKQLRKQTGARIDVDTEDVGDERVLLISGFPVQVCKAKAAIHQILTENTPVSEQLSVPQRSVGRIIGRGGETIRSICKASGAKITCDKESEGTLLLSRLIKISGTQKEVAAAKHLILEKVSEDEELRKRIAHSAETRVPRKQPISVRREDMTEPGGAGEPALWKNTSSSMEPTAPLVTPPPKGGGDMAVVVSKEGSWEKPSDDSFQKSEAQAIPEMPMFEIPSPDFSFHADEYLEVYVSASEHPNHFWIQIVGSRSLQLDKLVNEMTQHYENSVPEDLTVHVGDIVAAPLPTNGSWYRARVLGTLENGNLDLYFVDFGDNGDCPLKDLRALRSDFLSLPFQAIECSLARIAPSGDQWEEEALDEFDRLTHCADWKPLVAKISSYVQTGISTWPKIYLYDTSNGKKLDIGLELVHKGYAIELPEDIEENRAVPDMLKDMATETDASLSTLLTETKKSSGEITHTLSCLSLSEAASMSGDDNLEDDYLL
B11: CLEC6A (protein, UniProt Q6EIG7 1-209, looked up)
C-type lectin domain family 6 …: MMQEQQPQSTEKRGWLSLRLWSVAGISIALLSACFIVSCVVTYHFTYGETGKRLSELHSYHSSLTCFSEGTKVPAWGCCPASWKSFGSSCYFISSEEKVWSKSEQNCVEMGAHLVVFNTEAEQNFIVQQLNESFSYFLGLSDPQGNNNWQWIDKTPYEKNVRFWHLGEPNHSAEQCASIVFWKPTGWGWNDVICETRRNSICEMNKIYL
B12: CLEC4G (protein, UniProt Q6UXB4 1-293, looked up)
C-type lectin domain family 4 …: MDTTRYSKWGGSSEEVPGGPWGRWVHWSRRPLFLALAVLVTTVLWAVILSILLSKASTERAALLDGHDLLRTNASKQTAALGALKEEVGDCHSCCSGTQAQLQTTRAELGEAQAKLMEQESALRELRERVTQGLAEAGRGREDVRTELFRALEAVRLQNNSCEPCPTSWLSFEGSCYFFSVPKTTWAAAQDHCADASAHLVIVGGLDEQGFLTRNTRGRGYWLGLRAVRHLGKVQGYQWVDGVSLSFSHWNQGEPNDAWGRENCVMMLHTGLWNDAPCDSEKDGWICEKRHNC
B13: LYVE1 (protein, UniProt Q9Y5Y7 20-322, looked up)
Lymphatic vessel endothelial …: LVQGSLRAEELSIQVSCRIMGITLVSKKANQQLNFTEAKEACRLLGLSLAGKDQVETALKASFETCSYGWVGDGFVVISRISPNPKCGKNGVGVLIWKVPVSRQFAAYCYNSSDTWTNSCIPEIITTKDPIFNTQTATQTTEFIVSDSTYSVASPYSTIPAPTTTPPAPASTSIPRRKKLICVTEVFMETSTMSTETEPFVENKAAFKNEAAGFGGVPTALLVLALLFFGAAAGLGFCYVKRYVKAFPFTNKNQQKEMIETKVVKEEKANDSNPNEESKKTDKNPEESKSPSKTTVRCLEAEV
B14: FADD (protein, UniProt Q13158 1-208, looked up)
FAS-associated death domain …: MDPFLVLLHSVSSSLSSSELTELKFLCLGRVGKRKLERVQSGLDLFSMLLEQNDLEPGHTELLRELLASLRRHDLLRRVDDFEAGAAAGAAPGEEDLCAAFNVICDNVGKDWRRLARQLKVSDTKIDSIEDRYPRNLTERVRESLRIWKNTEKENATVAHLVGALRSCQMNLVADLVQEVQQARDLQNRSGAMSPMSWNSDASTSEAS

The molecules below were run on plasma proteins (assay: Plasma proteins modulated between baseline and day 28 in responders (CR, VGPR, PR; n = 19), Example 6 (Table 13)). Settings: plasma protein (OLINK NPX); responders (CR, VGPR, PR; n = 19); itacitinib 200 mg or 300 mg QD with corticosteroids; day 28 vs baseline.
Type: in vivo, human
Method in brief: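 Longitudinal comparison, day 28 versus baseline, with steroid-naive (N=10) and steroid-refractory (N=18) patients combined. Proteins measured by OLINK proximity extension, log2 normalized protein expression. Differences tested by t tests, ANOVA, Pearson correlation, P<0.05 significant.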
B1 was tested, and the “Fold Change, Decreased Expression from Baseline to Day 28” value (“Fold Change, Decreased Expression” for short) was −1.7729. With B2 the “Fold Change, Decreased Expression” value was −1.4489. For B3, the “Fold Change, Decreased Expression” value was −1.5868. In the case of B4, the “Fold Change, Decreased Expression” value is reported as −1.1727. With B5 the “Fold Change, Decreased Expression” value was −1.4153. With B6 the “Fold Change, Decreased Expression” value was −1.3019. With B7 the “Fold Change, Decreased Expression” value was −1.3733. B8 was tested, and the “Fold Change, Increased Expression from Baseline to Day 28” value was 1.6926. In the case of B9, the “Fold Change, Decreased Expression” value is reported as −1.494. For B10, the “Fold Change, Decreased Expression” value was −1.2785. B11 was tested, and the “Fold Change, Decreased Expression” value was −1.3248. B12 was tested, and the “Fold Change, Decreased Expression” value was −1.1865. For B13, the “Fold Change, Decreased Expression” value was −1.227. In the case of B14, the “Fold Change, Decreased Expression” value is reported as −1.546.
